These results are taken from patent US20180319855A1, “GENETICALLY MUTATED AEQUORIN-BASED BIOSENSORS WITH EXTRA SENSITIVITY TO CALCIUM AND IMPROVED BIOLUMINESCENCE INTENSITY” (CENTRE NATIONAL DE LA RECHERCHE SCIENTIFIQUE (CNRS), priority 2015, published 2018).

Data set [1] is described as follows: Ca2+ sensitivity curves of reconstituted photoproteins (L/Lmax vs free Ca2+). Format: biochemical. Particulars: for EC50: read-out: Calcium sensitivity, EC50. The procedure: For in vitro reconstitution, the purified and concentrated samples of apoaequorin and redquorin mutant proteins were buffer-exchanged to 50 mM Tris-HCl (pH 7.5), 150 mM NaCl, 10 mM EGTA, 5 mM ß-mercaptoethanol, supplemented with 5 μM CLZ-f or CLZ-native and incubated overnight at 4° C., in the dark. The next day, samples were passed through molecular weight cut-offs (AmiconUitra MWCO, 10K and 50K, from Millipore), then resuspended in Zero-Ca^2+ buffer (30 mM MOPS, 100 mM KCl and 10 mM EGTA, pH 7.2) for calcium affinity, emission decay kinetics and spectral analysis assays. As for in cellulo reconstitution, HEK cells transiently expressing the proteins of apoaequorin and aporedquorin mutants were washed twice with Hank's Balanced Salt Solution (HBSS) and incubated in the dark, with 4 μM of the desired CLZ diluted in OptiMEM I medium (Gibco), for 2-3h at 37° C. and 5% CO2. Cells were washed once and maintained in HBSS at 37° C. for 20 min before the experiment.
Functional Analysis of Aequorin Mutants and Fusions Ca^2+ Sensitivity Curves.
Purified and reconstituted samples with CLZ-f or CLZ-native already buffered-exchanged to zero-calcium buffer ensured to minimize calcium contamination that could interfere with the measurements. Fifteen microliter aliquot of photoprotein samples (concentration range, 50 to 90 ng/μl) was placed in a home-made luminometer and mixed with 300 μl solution containing the desired concentration of free-Ca^2+. The solutions of EGTA-buffered with varying free-Ca^2+ prepared according to the manufacturer instruction for the kit (Molecular Probes, Invitrogen). Integration of the luminescence emission (per second) was measured for 20 seconds (background) before injecting a solution with known [free-Ca^2+] and lasted until stable or decaying signal (at final-phase) was obtained. At this point, 400 μl of a saturating calcium solution (30 mM MOPS, 100 mM CaCl2, pH 7.2) was rapidly injected (less than 30 ms) and light integration continued until all aequorin had been consumed and light intensity had gone back to background signal. Luminescence intensity (L) at different [Ca^2+] was taken as the response peak value in case of decaying signal or as the stable value in case of stable emission. Lmax, was measured by integrating all remaining luminescence signal from that moment (L value) to the end of the experiment. The EC50 values were extracted from a sigmoidal dose-response fit (variable slope) using GraphPad Prism software.

A short description of data set [2]: Thermostability: relative bioluminescence activity after 30 min incubation. Format: physicochemical. Particulars: CLZ-f. Here is the method:
Thermostability of aequorin and redquorin mutant with increased affinity for calcium were compared to wt-aequorin (FIG. 5). The purified photoprotein samples were reconstituted with CLZ-f (as detailed earlier) and let to calibrate at room temperature (20-24° C.) for 20 min before taken the first measurement of total counts using saturating calcium solution (50 mM Tris-HCl, 100 mM CaCl2, pH 7.5). Samples were then incubated at two different temperatures (30 to 40° C.) for 30 min, and let equilibrate at room temperature for 15 minbefore taken the second measurement of total counts in the sample. The relative bioluminescence activity at each temperature was calculated by the ratio 2nd counts (at target T° C.)/1st counts (at initial T° C.) multiplied by 100.
Table 6 highlights the analysis of thermostability data obtained at two temperatures for aequorin and redquorin mutants, as well as CitA and GA. The values represent the degree of change in luminescence activity compared to wt-aeq, at each temperature. All values are relative to wt-aequorin (at each temperature) and were calculated by dividing the obtained data for each mutant/variant by the data for wt-aeq (as reference). The data were taken from FIG. 5.

The next data set concerns endogenous P2Y2 receptor. The data set can be described thus: Assay of activation of endogenous P2Y2 receptor by ATP in CHO cells stably expressing photoproteins. Format: cell-based. The note with it: CHO cells stably expressing the sensor; for EC50: ATP dose-response, read-out: EC50 (half-maximal effective concentration of ATP for P2Y2 activation). The procedure: Stably prepared CHO cells were loaded with 5 μM coelenterazine in 130 mM NaCl, 5 mM KCl, 1 mM MgCl2, 2 mM CaCl2, 5 mM NaHCO3, 20 mM N-(2-hydroxyethyl) piperazine-N′-ethanesulfonic acid (HEPES), pH 7.4 for 4 h at ambient temperature.
To produce stable CHO cell lines, the cells transfected with GA and Redquorin variant plasmids were seeded on six-well plates and grown in the same medium with addition of Geneticin sulfate (G418) (Gibco, UK) at 1 mg/ml under the same conditions with replacement of the medium by fresh medium every 2 days. After 7-10 days of selection, CHO cells were transferred into a medium without antibiotic. To select clones with the highest bioluminescence activity, one run of limiting dilution was performed. CHO cells after G418 selection were seeded on 96-well plates (approximately 0.5 cells per well) and grown in DMEM/F12 medium supplemented with 10% fetal calf serum at 37° C., 5% CO2 for up to 80-90% confluence. Before the bioluminescence measurements, the plates with monoclones of CHO cells expressing the corresponding photoprotein were duplicated and grown for up to 90-100% confluence. Then, the medium was removed and cells were loaded with coelenterazine, and bioluminescence in each well was measured according to the procedure described earlier. As a result, the CHO cell clones with the highest bioluminescence activity were selected.
Assay of Activation of Endogenous P2Y2 Receptor in CHO Cells
The CHO cell lines stably expressing each photoprotein were used in assay of activation of endogenous P2Y2 receptor by ATP. The day before the measurements, the corresponding cells were seeded on 96-well plates with DMEM/F12 medium supplemented with 10% fetal calf serum and were grown at 37° C. with 5% CO2 for up to 90-100% confluence. Then, the medium was replaced by 100 μl of coelenterazine solution per well (5 μM coelenterazine in 130 mM NaCl, 5 mM KCl, 1 mM MgCl2, 2 mM CaCl2, 5 mM NaHCO3, 20 mM HEPES, pH7.4) and the cells were incubated at 23° C. for 4 h. Emission from photoproteins in the cells was measured using a Mithras LB 940 plate luminometer. The ATP was injected at a given concentration to trigger an intracellular Ca^2+ response in the cells and the measurement started immediately. The bioluminescence was integrated over a time interval of 0.05 s for 30 s.

For data set [3] the following is noted: Tsuzuki et al. 2005; cited from earlier work.
For data set [4] the following is noted: background art; cited from earlier work.
Setting [5] is: CLZ-f, redquorin series, CitA, GA.
The mark [6] stands for this setting: CLZ-native, redquorin series, CitA, GA.
[7] abbreviates: CLZ-f, L/Lmax compared to Aeq-wt.

Where a chain is given by its changes, count along the chain named. Numbers in names are those of the source. Where two headings read alike, the source gives them in different places.

B1: Redq/QT + AD: aporedquorin mutant Q159T + A123D (SEQ ID NO:25) (protein)
chain: MVSKGEEVIKEFMRFKVRMEGSMNGHEFEIEGEGEGRPYEGTQTAKLKVTKGGPLPFAWDILSPQFMYGSKAYVKHPADIPDYKKLSFPEGFKWERVMNFEDGGLVTVTQDSSLQDGTLIYKVKMRGTNFPPDGPVMQKKTMGWEASTERLYPRDGVLKGEIHQALKLKDGGHYLVEFKTIYMAKKPVQLPGYYYVDTKLDITSHNEDYTIVEQYERSEGRHHLFLGHGTGSTGSGSSGTASSEDNNMAVIKEFMRFKVRMEGSMNGHEFEIEGEGEGRPYEGTQTAKLKVTKGGPLPFAWDILSPQFMYGSKAYVKHPADIPDYKKLSFPEGFKWERVMNFEDGGLVTVTQDSSLQDGTLIYKVKMRGTNFPPDGPVMQKKTMGWEASTERLYPRDGVLKGEIHQALKLKDGGHYLVEFKTIYMAKKPVQLPGYYYVDTKLDITSHNEDYTIVEQYERSEGRHHLFLSGFDNPRWIGRHKHMFNFLDVNHNGKISLDEMVYKASDIVINNLGATPEQAKRHKDAVEAFFGGAGMKYGVETDWPAYIEGWKKLATDELEKYAKNEPTLIRIWGDALFDIVDKDQNGDITLDEWKAYTKAAGIIQSSEDCEETFRVCDIDESGTLDVDEMTRQHLGFWYTMDPACEKLYGGAVP
modifications: mutant aequorin
In the case of B1, the EC50 in data set [1] (setting [5]) was found to be 336 ± 11 nM; in data set [1] (setting [6]) it was 577 ± 33 nM; with endogenous P2Y2 receptor it was 3100 ± 400 nM. Further, the “Relative intensity at pCa 6.5” value in data set [1] (CLZ-f, relative to Redq) came out at 14.4; in data set [1] (CLZ-native, relative to Redq), 14.4. For the same molecule, the “Relative intensity at pCa 7.2” value worked out at 7.4 in data set [1] (CLZ-f, relative to Redq) and 10.0 in data set [1] (CLZ-native, relative to Redq). In addition, the “Thermostability, luminescence activity relative to wt-aequorin” value in data set [2] (30° C. for 30 min) turned out to be 0.94; in data set [2] (40° C. for 30 min) it was 1.00. Also, the “[ATP] DL (detection limit)” value in the data set with endogenous P2Y2 receptor came out at 1230 ± 51 nM.

B2: Redq/QD + AT: aporedquorin mutant Q159D + A179T (SEQ ID NO:23) (protein)
chain: B1 chain with D587A, T623D, A643T
modifications: mutant aequorin
On to B2, for which the EC50 in data set [1] (setting [5]) worked out at 252 ± 40 nM; in data set [1] (setting [6]), 515 ± 20 nM; with endogenous P2Y2 receptor it was 2000 nM. The “Relative intensity at pCa 6.5” value in data set [1] (CLZ-f, relative to Redq) was 58.5; in data set [1] (CLZ-native, relative to Redq), 32.1. The “Relative intensity at pCa 7.2” value in data set [1] (CLZ-f, relative to Redq) is reported as 48.3; in data set [1] (CLZ-native, relative to Redq) it was 24.5. For the same molecule, the “Thermostability, luminescence activity relative to wt-aequorin” value was 1.00 in data set [2] (30° C. for 30 min) and 1.03 in data set [2] (40° C. for 30 min). Also, in the data set on endogenous P2Y2 receptor, the “[ATP] DL (detection limit)” value was 562 ± 20 nM.

B3: E35G: aequorin mutation from random mutagenesis reported by Tsuzuki et al. 2005 (protein)
chain: SKLTSDFDNPRWIGRHKHMFNFLDVNHNGKISLDGMVYKASDIVINNLGATPEQAKRHKDAVEAFFGGAGMKYGVETDWPAYIEGWKKLATDELEKYAKNEPTLIRIWGDALFDIVDKDQNGAITLDEWKAYTKAAGIIQSSEDCEETFRVCDIDESGQLDVDEMTRQHLGFWYTMDPACEKLYGGAVP
For the molecule B3, the “emission half-life (t½)” value in data set [3] was 40 s.

B4: V44A: aequorin mutant, valine 44 replaced by alanine (protein)
chain: B3 chain with G35E, V44A
Regarding B4, the “emission half-life (t½)” value in data set [3] is given as 34 s.

B5: Aeq-wt: wild-type aequorin: apoaequorin of Aequorea victoria (SEQ ID NO:1) reconstituted with coelenterazine (protein, listed as Aequorea aequorea)
chain: B3 chain with G35E
modifications: reconstituted with coelenterazine; SITE (1)..(189) wild-type aequorin
On to B5, for which the “affinity of aequorin for calcium” value in data set [4] was “around 1 μM”. Further, in data set [1] (setting [7]), the “Relative intensity at pCa 6.5” value was determined as 1 and the “Relative intensity at pCa 7.2” value is 1. In data set [1] (aequorin proteins reconstituted with CLZ-f, sigmoidal curve fit, mean ± SD, n at least 3), the EC50 was found to be 659 ± 23 nM. The “emission half-life (t½)” value in data set [3] was 0.8 s. In data set [2] (30° C. for 30 min), the “Thermostability, luminescence activity relative to wt-aequorin” value was found to be 1.00. The “Thermostability, luminescence activity relative to wt-aequorin” value in data set [2] (40° C. for 30 min) worked out at 1.00.
